Assay results published in patent US6987008B1, “Variant nucleoside-5′-phosphate producing enzyme” (priority 1999, dated 2006).
Values belong to the compound of their own block, whether it stands above or below them.

Assays:
[1] = biological target: T1, Escherichia blattae acid phosphatase (EB-AP), wild type, SEQ ID NO: 2 / 124 (Shimwellia blattae, UniProt Q9S1A6); assay: Km of inosine for wild-type EB-AP; assay type: biochemical
T1 sequence (Q9S1A6 21-249): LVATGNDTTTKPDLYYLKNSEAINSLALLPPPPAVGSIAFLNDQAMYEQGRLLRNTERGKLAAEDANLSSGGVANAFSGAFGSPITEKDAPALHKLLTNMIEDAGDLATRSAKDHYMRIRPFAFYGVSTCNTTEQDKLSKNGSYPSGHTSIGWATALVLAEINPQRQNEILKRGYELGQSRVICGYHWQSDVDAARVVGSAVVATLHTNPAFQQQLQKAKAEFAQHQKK

[2] = test system: Nc1nc2c(ncn2[C@@H]2O[C@H](CO)[C@@H](O)[C@H]2O)c(=O)[nH]1; assay: Km for inosine and guanosine, transphosphorylation by EA-AP mutant of pENP320; assay type: biochemical, Enterobacter aerogenes IFO12010; details: other: transphosphorylation, 100 μmol/ml sodium pyrophosphate, pH 4.0, 30° C., 10 min, cell free extract, Hanes-Woolf
From the text: (§1) The mutations were introduced into the plasmid DNA by using Quick Change site-directed mutagenesis kit produced by Stratagene. Twenty kinds of oligonucleotides (Table 12) for introduction of mutation from MUT180 (SEQ ID NO: 101) to […] (SEQ ID NO: 120) were synthesized by using a DNA synthesizer (Model 394 produced by Applied Biosystem). The mutations were introduced according to the protocol of Stratagene by using pENP170 as the first template and MUT180 and MUT181 as oligonucleotides for introduction of mutation.
(§2) By using a plasmid introduced with a mutation as a new template, the same procedure was repeated to cumulatively introduce site-specific mutations. Plasmids were prepared from the transformants by the alkali lysis method, and their nucleotide sequences were determined to confirm that the target nucleotides were replaced. […]
(§3) Escherichia coli JM109/pENP180, Escherichia coli JM109/pENP320, Escherichia coli JM109/pENP340, Escherichia coli JM109/pENP410, Escherichia coli JM109/pENP510 and Escherichia coli JM109/pENP520, which were introduced with a plasmid containing each mutant acid phosphatase gene, were each inoculated to 50 ml of L medium containing 100 µg/ml of ampicillin and 1 mM of IPTG, and cultured at 37° C. for 16 hours. […] Km values for inosine and guanosine in the transphosphorylation reaction were measured by using each cell free extract. […]

[3] = test system: OC[C@H]1O[C@@H](n2cnc3c(O)ncnc32)[C@H](O)[C@@H]1O; assay: as above; assay type: biochemical, Enterobacter aerogenes IFO12010; details: other: transphosphorylation, 100 μmol/ml sodium pyrophosphate, pH 4.0, 30° C., 10 min, cell free extract, Hanes-Woolf
From the text: as §1, §2, §3

[4] = test system: Nc1nc2c(ncn2[C@@H]2O[C@H](CO)[C@@H](O)[C@H]2O)c(=O)[nH]1; assay: Km for inosine and guanosine, transphosphorylation by EA-AP mutant of pENP520; assay type: biochemical, Enterobacter aerogenes IFO12010; details: other: transphosphorylation, 100 μmol/ml sodium pyrophosphate, pH 4.0, 30° C., 10 min, cell free extract, Hanes-Woolf
From the text: as §1, §2, §3

[5] = test system: OC[C@H]1O[C@@H](n2cnc3c(O)ncnc32)[C@H](O)[C@@H]1O; assay: as above; assay type: biochemical, Enterobacter aerogenes IFO12010; details: other: transphosphorylation, 100 μmol/ml sodium pyrophosphate, pH 4.0, 30° C., 10 min, cell free extract, Hanes-Woolf
From the text: as §1, §2, §3

[6] = test system: Nc1nc2c(ncn2[C@@H]2O[C@H](CO)[C@@H](O)[C@H]2O)c(=O)[nH]1; assay: Km for inosine and guanosine, transphosphorylation by EA-AP mutant of pENP340; assay type: biochemical, Enterobacter aerogenes IFO12010; details: other: transphosphorylation, 100 μmol/ml sodium pyrophosphate, pH 4.0, 30° C., 10 min, cell free extract, Hanes-Woolf
From the text: as §1, §2, §3

[7] = test system: OC[C@H]1O[C@@H](n2cnc3c(O)ncnc32)[C@H](O)[C@@H]1O; assay: as above; assay type: biochemical, Enterobacter aerogenes IFO12010; details: other: transphosphorylation, 100 μmol/ml sodium pyrophosphate, pH 4.0, 30° C., 10 min, cell free extract, Hanes-Woolf
From the text: as §1, §2, §3

[8] = test system: Nc1nc2c(ncn2[C@@H]2O[C@H](CO)[C@@H](O)[C@H]2O)c(=O)[nH]1; assay: Km for inosine and guanosine, transphosphorylation by EA-AP mutant of pENP180 (parent); assay type: biochemical, Enterobacter aerogenes IFO12010; details: other: transphosphorylation, 100 μmol/ml sodium pyrophosphate, pH 4.0, 30° C., 10 min, cell free extract, Hanes-Woolf
Protocol: (§4) As a gene for introducing a mutation, a plasmid pENP170 that contained a mutant EA-AP gene coding for L61Q/A63Q/E64A/N67D/S69A/G72D/T133K/E134D/I151T mutant EA-AP was used. pENP170 was prepared as follows.
(§5) As described above, a mutant gene was constructed, in which the nucleotide sequence of −10 region of the deduced promoter sequence located upstream from the coding region of the deduced acid phosphatase derived from Enterobacter aerogenes IFO12010 was changed from AAAAAT to TATAAT, which was the same as lac promoter of Escherichia coli. The plasmid containing this mutant gene was designated as pENP180.
as §3, with “hours. The cells were suspended in 50 mL of 100 mM potassium phosphate buffer (pH 7.0), and disrupted by sonication at 4° C. for 20 minutes.[…]” for “hours.”

[9] = test system: OC[C@H]1O[C@@H](n2cnc3c(O)ncnc32)[C@H](O)[C@@H]1O; assay: as above; assay type: biochemical, Enterobacter aerogenes IFO12010; details: other: transphosphorylation, 100 μmol/ml sodium pyrophosphate, pH 4.0, 30° C., 10 min, cell free extract, Hanes-Woolf
Protocol: as §4, §5
as §3, with “hours. The cells were suspended in 50 mL of 100 mM potassium phosphate buffer (pH 7.0), and disrupted by sonication at 4° C. for 20 minutes.[…]” for “hours.”

[10] = test system: Nc1nc2c(ncn2[C@@H]2O[C@H](CO)[C@@H](O)[C@H]2O)c(=O)[nH]1; assay: Km for inosine and guanosine, transphosphorylation by EA-AP mutant of pENP510; assay type: biochemical, Enterobacter aerogenes IFO12010; details: other: transphosphorylation, 100 μmol/ml sodium pyrophosphate, pH 4.0, 30° C., 10 min, cell free extract, Hanes-Woolf
From the text: as §1, §2, §3

[11] = test system: OC[C@H]1O[C@@H](n2cnc3c(O)ncnc32)[C@H](O)[C@@H]1O; assay: as above; assay type: biochemical, Enterobacter aerogenes IFO12010; details: other: transphosphorylation, 100 μmol/ml sodium pyrophosphate, pH 4.0, 30° C., 10 min, cell free extract, Hanes-Woolf
From the text: as §1, §2, §3

[12] = test system: Nc1nc2c(ncn2[C@@H]2O[C@H](CO)[C@@H](O)[C@H]2O)c(=O)[nH]1; assay: Km for inosine and guanosine, transphosphorylation by EA-AP mutant of pENP410; assay type: biochemical, Enterobacter aerogenes IFO12010; details: other: transphosphorylation, 100 μmol/ml sodium pyrophosphate, pH 4.0, 30° C., 10 min, cell free extract, Hanes-Woolf
From the text: as §1, §2, §3

[13] = test system: OC[C@H]1O[C@@H](n2cnc3c(O)ncnc32)[C@H](O)[C@@H]1O; assay: as above; assay type: biochemical, Enterobacter aerogenes IFO12010; details: other: transphosphorylation, 100 μmol/ml sodium pyrophosphate, pH 4.0, 30° C., 10 min, cell free extract, Hanes-Woolf
From the text: as §1, §2, §3

Km [1]: > 100 mM
Compound: OC[C@H]1O[C@@H](n2cnc3c(O)ncnc32)[C@H](O)[C@@H]1O [inosine]

Compound: Enterobacter aerogenes IFO12010 acid phosphatase (EA-AP) mutant encoded by pENP320, L61Q/A63Q/E64A/N67D/S69A/A70V/G72D/E102L/T133K/E134D/T149S/I151S (parent SEQ ID NO: 10) (Klebsiella aerogenes KCTC 2190; A83Q/A90V/E122L/E154D/E84A/G92D/I171S/L81Q/N87D/S89A/T153K/T169S)
Km [2]: 4.6 mM | Km [3]: 19 mM

Compound: Enterobacter aerogenes IFO12010 acid phosphatase (EA-AP) mutant encoded by pENP520, L61Q/A63Q/E64A/N67D/S69A/A70K/G72D/T133K/E134D/T149G/I151S (parent SEQ ID NO: 10) (Klebsiella aerogenes KCTC 2190; A83Q/A90K/E154D/E84A/G92D/I171S/L81Q/N87D/S89A/T153K/T169G)
Km [4]: 4.4 mM | Km [5]: 46 mM

Compound: Enterobacter aerogenes IFO12010 acid phosphatase (EA-AP) mutant encoded by pENP340, L61Q/A63Q/E64A/N67D/S69A/A70V/G72D/E102Q/T133K/E134D/T149S/I151S as printed in Table 13 (parent SEQ ID NO: 10) (Klebsiella aerogenes KCTC 2190; A83Q/A90V/E122Q/E154D/E84A/G92D/I171S/L81Q/N87D/S89A/T153K/T169S)
Km [6]: 5.1 mM | Km [7]: 19 mM

Compound: Enterobacter aerogenes IFO12010 acid phosphatase (EA-AP) mutant encoded by pENP180, L61Q/A63Q/E64A/N67D/S69A/G72D/T133K/E134D/I151T, SEQ ID NO: 10 (Klebsiella aerogenes KCTC 2190; A83Q/E154D/E84A/G92D/I171T/L81Q/N87D/S89A/T153K)
Km [8]: 40 mM | Km [9]: 40 mM

Compound: Enterobacter aerogenes IFO12010 acid phosphatase (EA-AP) mutant encoded by pENP510, L61Q/A63Q/E64A/N67D/S69A/A70E/G72D/T133K/E134D/T149G/I151S (parent SEQ ID NO: 10) (Klebsiella aerogenes KCTC 2190; A83Q/A90E/E154D/E84A/G92D/I171S/L81Q/N87D/S89A/T153K/T169G)
Km [10]: 4.0 mM | Km [11]: 17 mM

Compound: Enterobacter aerogenes IFO12010 acid phosphatase (EA-AP) mutant encoded by pENP410, L61Q/A63Q/E64A/N67D/S69A/A70V/G72D/T133K/E134D/T149A/I151S (parent SEQ ID NO: 10) (Klebsiella aerogenes KCTC 2190; A83Q/A90V/E154D/E84A/G92D/I171S/L81Q/N87D/S89A/T153K/T169A)
Km [12]: 4.9 mM | Km [13]: 18 mM
